Assay results taken from patent US12281155.

Key:
Settings in all cases: remark: other sources report otherwise
[1] = target: T1, recombinant SARS-CoV-2 Spike RBD domain, BA.2 variant (SARS-CoV-2); test: competition ELISA, blocking of RBD binding to ACE2 ectodomain
[2] = target: T2, recombinant SARS-CoV-2 Spike RBD domain, BA.4/5 variant (SARS-CoV-2); test: as above
[3] = target: T3, recombinant SARS-CoV-2 Spike RBD domain, Delta variant (SARS-CoV-2); test: as above
[4] = target: T1, recombinant SARS-CoV-2 Spike RBD …; test: ELISA on coated RBD
[5] = target: T2, recombinant SARS-CoV-2 Spike RBD …; test: ELISA on coated RBD
[6] = target: T3, recombinant SARS-CoV-2 Spike RBD …; test: ELISA on coated RBD

B1: SPK002 antibody (parental version Cv2.3194 described in WO 2022/228827) (antibody, V domains shown)
VH: EVQLVESGGGLIQPGGSLRLSCAASGITVTSNYMSWVRQAPGKGLEWVSVIYPGGSTFYADSVKGRFTISRDNSKNTLYLQMNSLRAEDTAVYYCARDLVVYGMDVWGQGTTVTVS
VL: EIVLTQSPGTLSLSPGERATLSCRASQSVSSSYLAWYQQKPGQAPRLLIYGASSRATGIPGRFSGSGSGTDFTLTISRLEPEDFAIYYCQQGVTFGGGTKVEIK
Blocking % [1]: 94% | Blocking % [2]: 92% | Blocking % [3]: 93% | Binding AUC [4]: 33 | Binding AUC [5]: 33 | Binding AUC [6]: 34
